The nature of series [1]: DAR analysis by LC-MS (UPLC/ESI-MS, reverse-phase LC-MS). The note with it: reverse-phase LC-MS. The protocol: ADCs were deglycosylated using PNGase F (New England BioLabs). G7 buffer (10 μL) and PNGase F (2 μL) were added to the mAb (90 μL, 1 mg/mL in DPBS). The reaction was incubated in a Discover microwave (CEM) for 2 cycles: (1) microwave power 10 W, 37° C., 10 min, followed by a 5-min pause; (2) microwave power 2 W, 37° C., 10 min. A portion of the sample was reduced by adding DTT to a final concentration of 20 mM, followed by incubation at 60° C. for 3 min. Samples were then analyzed using a Waters Acquity Ultra Performance Liquid Chromatography (UPLC) and quadrupole time of flight (Q-Tof) Premier mass spectrometer. Samples (0.5-2 μg each) were injected onto a MassPrep™ micro desalting column at 65° C., eluted from the column with a 5 min equilibration in 95% of mobile phase A, a 10 min gradient (5-90% B), and a 10 min re-equilibration in 95% of mobile phase A, at 0.05 mL/min. Mobile phase A was 0.1% formic acid in water. Mobile phase B was 0.1% formic acid in acetonitrile. The Q-Tof mass spectrometer was run in positive ion, V-mode with detection in the range of 500-4000 m/z. The source parameters were as follows: capillary voltage, 2.25 kV (intact antibody)-2.50 kV (reduced antibody); sampling cone voltage, 65.0 V (intact antibody) or 50.0 V (reduced antibody); source temperature, 100° C.; desolvation temperature, 250° C.; desolvation gas flow, 550 L/hr. The protein peak was deconvoluted using the MassLynx® MaxEnt 1 function. Relative intensities of each unconjugated, singly-conjugated, and multiply-conjugated heavy and light chain masses were combined to calculate the overall DAR using the formula:
2[[ILC+1+2(ILC+2)+3(ILC+3)+ . . . n(ILC+n)]/ΣILCtot]+2[[IHC+1+2(IHC+2)+3(IHC+3)+ . . . n(IHC+n)]/ΣIHCtot]
where ILC+1 is mass intensity of light chain conjugated with one cytotoxin, ILC+2 is mass intensity of light chain conjugated with two cytotoxins, etc. IHC are the intensities from the corresponding conjugated heavy chains, and ΣILCtot and ΣIHCtot are the combined intensities of all unconjugated and conjugated light chains and heavy chains, respectively.
DAR was also analyzed using an LC-MS method with a Waters Alliance HPLC with SQD/PDA detection. Samples were injected onto a Proteomix RP-1000 column ([…], 1000A, 4.6 mm×15 cm, Sepax) at 65° C., and eluted with a 3 min equilibration in 25% B, a 27 min linear gradient from 25%-55% B, a 5 min hold at 55% B, a 1 min change to 90% B, a 5 min hold at 90% B, a 1 min change back to 25% B, and a 5 min reequilibration at 25% B. Mobile phase A was 0.1% TFA in water, and mobile phase B was 0.1% TFA in acetonitrile. The elute was then split (10:1) into PDA and SQD detectors. The SQD detector was set up as ES positive, capillary voltage at 3.2 kV, cone voltage at 40 V, extractor at 3 V, and RF lens at 0.2 V, source temperature at 150° C., and desolvation temperature at 250° C. Mass data was acquired at 200-2000 m/z for 40 min, continuum mode, scan time 1 second. Data was analyzed and deconvoluted offline using MassLynx and MaxEnt1. DAR was calculated using the formula:
2[[AUCLC+1+2(AUCLC+2)+3(AUCLC+3)+ . . . n(AUCLC+n)]/[…]]+2[[AUCHC+1+2(AUCHC+2)+3(AUCHC+3)+ . . . n(AUCHC+n)]/ΣAUCHCtot]
where AUCLC+1 is the area under the curve of the light chain peak conjugated with one cytotoxin, AUCLC+2 is the area under the curve of the light chain peak conjugated with two cytotoxins, etc. AUCHC is the area under the curve of the corresponding heavy chains, and ΣAUCLCtot and ΣAUCHCtot are the combined area under the curve of all unconjugated and conjugated light chains and heavy chains, respectively.

Another series has as its target human mesothelin (Homo sapiens, UniProt Q13421). Kind of series: ELISA, mesothelin. The series is classed as binding. As to conditions: MORAb-009 and its ADCs; for EC50: read-out: Antigen Binding ELISA, EC50. The protocol: Recombinant human mesothelin was diluted to 1 μg/mL in coating buffer (50 mM carbonate-bicarbonate buffer, pH 9.6), and coated onto 96-well Maxisorp black plates (Thermo, Cat No. 43711, 100 μL/well) at 4° C., overnight. Coating solution was discarded and the plates were washed three times using 1×PBS with 0.05% Tween-20 (PBST) buffer. Plates were blocked in 300 μL blocking buffer (1% BSA in PBST) at room temperature for 2 hours on an orbital shaker. […] Blocking buffer was discarded and 100 μL/well of diluted antibody was added to the plates. Plates were incubated at room temperature for 2 hours on an orbital shaker. Antibody solution was discarded and plates were washed three times using PBST. 100 μL/well of goat-anti-human IgG (H+L)-HRP (1:10,000 dilution in blocking buffer) solution was added to the plates, and plates were incubated at room temperature for 1 hour on an orbital shaker. Secondary antibody solution was discarded and plates were washed three times using PBST. 100 μL/well of QuantaBlu fluorogenic peroxidase substrate working solution (Thermo, Cat No. 15169) was added to the plates, and plates were incubated at room temperature for 30 min. Fluorescence was read at excitation 325 nm/emission 420 nm using a SpectraMax M5 (Molecular Devices). Data was analyzed using SoftMaxPro 5.4.2 software with 4-parameter fitting.
(In general: In an ELISA, binding on a coated surface is turned into a signal by an enzyme label.)

A further series deals with NCI-H2110 cells. Kind of series: Crystal Violet cytotoxicity assay (Example 4), NCI-H2110. Format: cell-based, human. As to conditions: mean of replicate experiments, read-out: Cytotoxicity IC50 (nM), NCI-H2110 (FR^med, MSLN^med). The protocol:
Test reagents were serial diluted 1:3 in 2 mL deep-well dilution plates, starting at 200 nM (10 dilutions total). […] Medium was then discarded. […] Plates were read at 570 nm. Data was analyzed using GraphPad Prism 6.

As a reminder, the EC50 is the concentration that produces a half-maximal response. What is called IC50 is the midpoint of a concentration-inhibition curve. Regarding MORAb009-PEG2-eribulin, the “DAR (LC-MS)” value in series [1] is 4.55. In the series with human mesothelin, the “Antigen Binding ELISA, EC50” value is 0.00884 µg/mL and the half-maximal effective concentration (EC50) stood at 0.06 nM. In addition, in the series with NCI-H2110 cells, the IC50 was determined as 50 nM.
The corresponding values for MORAb009-PEG4-eribulin are 4.48, 0.0116 µg/mL, 0.08 nM and 31.6 nM.
